Test results as given in the domain aggregation screens of Martell et al. (2025).

Assay: soluble fraction after stress (log2 fold change); higher = more stays soluble; pooled small domains, quantitative proteomics
Conditions: stress: 50 degC
In short: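 Custom libraries of small protein domains were pooled and measured in a high-throughput format, with quantitative proteomics as the read-out. Each library was stressed at 50°C. The value is the log2 fold change in the amount of each protein that stays soluble after stress, used as a measure of aggregation propensity; higher values mean more of the protein stays soluble.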

Sequence | soluble fraction (log2)
HMKPSVEIKVNGGTGAGVVKKGGSITVTANEPAEGKVFTGWQDESGKIVSTQKEYTFTVAEGTTLTAVYED | 0.45
HMKPTGWVRGDMGVVDKGQLSITQGTVNVRSGPGLSYEILDQVRRGDRFPVIKSQSGWHNISM | 0.0818
HMKPTSLLGIERYLGSGLIRGVGPSTAKQIVEHFGMETMEVLTEHPERLQEVHGMGRKRWRQIAESFQEQQ | -0.797
HMKPVTVINFVGMTEEKAMTEAEKLGLVVGASSSEYSDEPAGTVIRQSISVSTEAKTGDNIYFTVSKGPE | 0.163
HMKQETLNEIGTKIRKLRESKNLSIQEFADKLEMEYNNVIRIEKGRTNFTIGTLVKIANSLEVNLKDI | -0.78
HMKQFVVQYYGIDGEVINSVYKNGMSDLTSYEPEKIDGKNFKGWSLSEDSKKVIDENYRINSDVNLYAVYT | 0.0253
HMKQHPTIDLQIGQKLHYKEDVFEVTRFAKDKNGQDMVILKDPSIGSGIEIPWYRSKLEEIIESGQYKIT | 0.413
HMKQIEEIIARYTNENTPLMMILSDVQREYGYIPLDVQELISEKTGIPVAEIYGVVTFYSFFSL | -0.572
HMKQISQNIHRLRKEKGMSQEQLAQALHVTRQTVSAWERGIAQPSLDVLGQIAQLLGVEPERLLYGE | 0.153
HMKQLQIPYSFAKRHGVLLRYEGDQAFIVRRDNTSMLALQEARRLLGHPAHYLLYSEQEFNQLLSASFA | -2.7
HMKQLVVVPRVVSLSEGKAREDVGDRGLVVDRVEMDTLRTPYENTVTRQEPAADSRVPVGTRVTLWISPGV | 0.261
HMKQNSDDGEIRKIIIEILDNNLDNVNKYKSGRTNVLDFFVGQVMKQTRGQANPELTRSILTEELSN | 0.0594
HMKQQTRAELLDEFAKAHAERGLYFNRDYEQGEIQALQPDKAREYLQSALEARTERQQASEQDR | 0.274
HMKQTDQELAEMLRFRAAQRGLLMSDEVVNYVMTRVERSAKSLIMLLDRIDRAALAQARPVTIPLINEL | -0.499
HMKQVEVPRLVGLTLREAQAVLGQVGLRIGLISRAALLASPREQIVEQIPVAGERNIATPYVNLLVNVP | -0.649
HMKRDEYIAQLKKYLKRLPKKEYDSAIEYFTEYFDEAGPERELEVIQELGQPKEAAKEMLLQLLNE | 0.0905
HMKRDNETRRRIVAAAEELFRAKGLDGVNMRELAEMAGVNKGLLHYYFKTKQALFREILVGQMAL | -1.05
HMKRDRLYGITIYLLNHGRTSAKTLAEYFEVSVRTIQRDMDALSMAKIPIIAYPGSDGGYEIQEGYRL | -3.1
HMKRDYELPAFIETYLKKNHVAIDTKSAAMIAEHIGADLSRLISELDKVMISLPDDDRRVTPDVVEREI | -0.00533
HMKREETLKALATKNANYVARSGRRYSFEPMNPYERRIIHTAVQEIEGVTSRSIGSGMDRRVLIEPEGGV | -0.194
HMKRELFVEPGMRLEHTPSKTSGPVVSFIEGVIVVIKDQLGSEHRFDPVPGFFRHEGDLVALRSPLL | -0.282
HMKRIDTILETFAKVHKHIPSKLILLGDGPELLDMRKIARSLHIEDDVLFLGKQDQVSKFYQMADLVLLL | -0.0419
HMKRIHLSDEEKTDLESLHYSSNDGKQRDRIKAVLLRSEGWTVPMISQALRIHETTVTRYLNDYREGKLKN | 0.00871
HMKRITKKELKQAIVDVFADKPGQSFNYKQLATIIGIKDDPTRRMITDILYELVQEERIVELYRGKFKMEM | -0.66
HMKRLPFSFAKRFGVVVEDGEPPIVHHRDGASAETLLEVRRRLGQVFTLQRHDAEAFERLLTQAYQR | -0.383

Sequence | soluble fraction (log2)
HMKRPEPESPEAERRSQRAADWLVRRDRGLTAAEQDEFLQWLAIDPRHGEWFALHRSVVGEFSA | -0.192
HMKRQDFEFLVNLLRQNAGWDFDEEQYFVVDKKISNFIREKGYASVEDLIDELKVGAKPLISQVVESLAL | -0.622
HMKRTFGEISPLPSGRYRARYRGPDGERYPAPVTFLSRMDAETWLSAQARKVSSGDWTPPVGVVA | -0.16
HMKRWHVGDPIDALTAAGKVPSWSTIRQRFWKTIAALYPDIEQSERLQRGLAMLDEAGTSIELHHP | -1.01
HMKRYLFEEVLAFLKHNDGKSFNYKQLGAAMEIDNESDRFALLETLEELKHQGFVIETDIGKYAAKE | -0.324
HMKSDELTKRRRLQIIEAAERSFRKRGFHATTLREIAAEFGMSVGHIYNYFSGKDAILEALIHQKIDD | -0.82
HMKSKHENLIDGLLKMISSMKPHDRLTPERQLAEEWAVSRMTLRRALEVLQFQGKIYTVPSSGLFVAEPK | -2.29
HMKSKPRVPFGSLVEMGILKPGSILFDPKGKIKTKVMVDGSIKYKETEGSIHKVAAQIMGTESYNGWTYW | 0.355
HMKSLDDVISKFRPTGSENKIDFRKRVISEIHAQGFFKIKGSVNHVAKALGVTRYTVYNYLDKLND | -3.23
HMKSLLTHAEEFVRNNNGRWMLAETSSKESYSSKQNFYLRNNYSIISEIRDFYSVGDNLLVFGKFFT | 0.0992
HMKSNESAELGERMLNKALLALHTDSSKISDTQWQKLLRDYGAKNKQEILTDIGLGKRLNVMVAHQLMAMG | -0.0795
HMKSNIGENIRQLREKREMSVERVARMLEVKPATVIGWESGRELPEPAELGLLAKLFDVTVEELN | 0.106
HMKSNKEKIYDFIQMHDTAEKEGGVSTTYIAQALSLQRTNVSSLLNALVEEGRIHKSNGRPVLYSIAG | 0.0955
HMKSPAQAAALKKLWAAIKQNEQGEVVEVLFHNRKLTDAGLVHLKGLANLQTLNLYDTKITGAGLVHL | 0.0876
HMKSVLDDVAGLGPVRKKALLKAMGGFTRLRAASLDDILAVRAVPEEVAREVFAVLAQYNSVRNNDISE | -0.273
HMKSVTAPLPGTVTQILVKVGDAVKAGDTVLMLEAMKMENSITAEAAGTVKAIRVEKGAQVQGGDVLIEM | 0.156
HMKTAAKVLGESGGKPVTVQSGRYGPYVQLGTIRATLPKDLDQEAVTLDKALELIDAKAERSGK | 0.172
HMKTDFEIDITVKASSLRVVASPGGDELVGTVTRGDRVTQLATPKDGWILIKMTDGRLGYVPESLLLFP | -0.0577
HMKTEIGQAMRKLRKAKKMTQDTLAEKLGVAPANISRYEKGQQGIEVDKLPTLADALGVSVPEFFAIASG | 0.0437
HMKTELAYDFHSRIRDARIREGLSQVDLAKRMNEKIAVIQKAENGIRPTDSLIAKFSKALSVELYVE | -1.26
HMKTGIIYGVNGPVIYLKGDTGFKISEMVYVGPEKLVGEVIGLKKHMTTVQVFEETTGLKPGETVIGTGDA | -0.486
HMKTGTVQDFIAKYGMSSKSPSSWFNSLTQIQKAEAKALKAQSGLTWNEWYEKNIYNGDGSNL | 0.0263
HMKTKHISIAEGMSLYTRDRSPFYWGYLNIEGVIHKKSLKTDVVDEAIKLLSIWKNELLNSITK | -1.28
HMKTKKYKGVYKDSKGKIYFQIELGVDPITGKRIQKKGRKNQQGLPFNSFKEAYEEILRLKHEFVNSTIN | -2.69
HMKTKTAPPDSIPPAWLKESATLRPDLNQAQIKASAEVFLDHHRAKGTTLADWRPAWRNWIRRERA | 0.116

Sequence | soluble fraction (log2)
HMKTLDAFFDQARDAYKKLKKDGDIDNLKVLRNQLQTVRETQGDAVRKKSKEEYRRLVDIIDDIDGLLAAF | -0.102
HMKTLSKEDIGFLSDEAVGEMRKAVANGEMLELRALIDQVGEKNPIVAEKLLTLVKQYDYENLNRVLE | 0.0931
HMKTPAPRETILSLFRQTPDGFVSGERISDELGVSRTAVWKHIRNLRQAGYQIEAIPSRGYQLQQS | -0.359
HMKTQFGTIVKQLRERKGMDQKQLGEIVGVSDKTVSSWEINRTEPKMGIVQQLADYFGVSTDYLIKG | 0.295
HMKTRQVTVRNGRIEIFDKRFSTERLVFTAANLPVLEREGEVFTAGIPDSRDFINLWARDGSFAGSVPRV | -1.06
HMKTTSYAKLLRFLRTERDLSQITVAKQLGLSRASYLALEHGSRELSLSEAVKVTTLYGIRIDDLIVNH | -3.48
HMKTTVEVSPIARPGAVASGSVKFGSGVTAEWMLDQYGRLGLDKPTGKPTEQDIKEFQIELQKAL | 0.165
HMKVDLSEEEKTILELLKKESPQELETIKAASTLSNKKWDKAIKGLRKHNLAKVNKTDDGLFVELE | 0.257
HMKVDRLISIVLVLLDKNRISAQELADMFEVSLRTIYRDIDAIELAGIPIRSTSGVGGGFEIMPNY | -0.577
HMKVKGVYQLDNGYWGYRFTMLVNGKTVSQRRVKDESGNPFKTEKKAEKARLVAMAEEQTKANK | -2.11
HMKVMTNAELGRIIKEARIARRMTQSEVVGDFITRNMLSQIENGNAAPSMRTLQYLMDVLDIHINIE | -2.58
HMKVNIGDQVYNQMKDQIMSGVWVPGEKIPSENQLMEVFGVSRGTVRQAIQKLSAVGLLETRRGEGSYVGQ | -0.115
HMKVQLGMNTREVRGIMGKPFSEDTFVEGEKRVDVLHYKEAVRVKTQGFILTTSLRFENDSLTAI | -1.74
HMKVRVFIERSNDGYSAYMPDDNNLPFGLTGDGKTAQEAMQDFLLARDEMKEFFIEEGKEFPEVEFDFS | -1.35
HMKVSAEEQNILDALQAAGGYLPFHDKSNPEEIYEAFGISKKTFKMIIGSLYKQQKINLTQTGIQLII | -0.0574
HMKVSDPEAIKLIEQAQVKVIPFLDISEAADIQIALEELKNSEGTGQTDSAKVRLRNLLSPFSYL | 0.269
HMKVSFEIEINGVTKSINSINEAKEAISELQDIMDNSTFGSEEFKNAATQIDKLQNKLVEALDK | -0.0374
HMKVSVDLSMFEDDQTADRNAAVAWVVDELGAGGVDRTILMQLQSTGWSAEQSRAILDLASAGR | -0.208
HMKVTGSVQKKKGYYYIVVRLPTKNGTQYEQKQKWFNTKLKATPRNKTAAQVILAEKLTEYGGIV | -2.8
HMKVWYAGINAQRVGPMTLGAMEQQIRYGRVLFSTLIWKSPMPQWVPAGDVPELRRLLDEHMLNQMP | -0.381
HMKYFDRDLINYIQKTLAGKKIDFHEKIVPLIIELAGSDIRRVDEIIDMAEYSGKGMHVSEEMIRELAGDV | -0.815
HMKYKTKRDMILALMKKEILSGELKPRTRLLISEVASRYEVSEIPVREAFQVLIQEDLVRSTGAGFEVT | -0.744
HMKYPVYLQLADLIERKINKNEYPLGSKIPSERELIDAFGISRMTVRKAIEVLIEKGLLTRQHGKGTYVSQ | -1.29
HMKYSNDFDKVSYSLGLSIASNLISSGVKTLNAEAFNDGLATVFEGRMPEINPDEANKILQNFFEGLQKE | 0.0191
HMKYSQAMIAQIIKHFHLPNNTVVTGEDVDAILLRSVDGGDGIYGGDVVSIWKYYKKQNDIQEIVT | -0.645
